These results are taken from the DeepSol protein solubility set.

This data set in a line: soluble on expression in E. coli; label from the status in PepcDB or PDB records.
Regarding “MRVDAIAKVTGRARYTDDYVMAGMCYAKYVRSPIAHGYAVSINDEQARSLPGVLAIFTWEDVPDIPFATAGHAWTLDENKRDTADRALLTRHVRHHGDAVAIVVARDELTAEKAAQLVSIEWQELPVITTPEAALAEDAAPIHNGGNLLKQSTMSTGNVQQTIDAADYQVQGHYQTPVIQHCHMESVTSLAWMEDDSRITIVSSTQIPHIVRRVVGQALDIPWSCVRVIKPFVGGGFGNKQDVLEEPMAAFLTSKLGGIPVKVSLSREECFLATRTRHAFTIDGQMGVNRDGTLKGYSLDVLSNTGAYASHGHSIASAGGNKVAYLYPRCAYAYSSKTCYTNLPSAGAMRGYGAPQVVFAVESMLDDAATALGIDPVEIRLRNAAREGDANPLTGKRIYSAGLPECLEKGRKIFEWEKRRAECQNQQGNLRRGVGVACFSYTSNTWPVGVEIAGARLLMNQDGTINVQSGATEIGQGADTVFSQMVAETVGVPVSDVRVISTQDTDVTPFDPGAFASRQSYVAAPALRSAALLLKEKIIAHAAVMLHQSAMNLTLIKGHIVLVERPEEPLMSLKDLAMDAFYHPERGGQLSAESSIKTTTNPPAFGCTFVDLTVDIALCKVTINRILNVHDSGHILNPLLAEGQVHGGMGMGIGWALFEEMIIDAKSGVVRNPNLLDYKMPTMPDLPQLESAFVEINEPQSAYGHKSLGEPPIIPVAAAIRNAVKMATGVAINTLPLTPKRLYEEFHLAGLI”, the “soluble on expression in E. coli” value is reported as “soluble”.

With “MAGEKFQKKGKEKWKEKVWYTVEAPPYLGSKEVSVALGEDSNSMVNRVVEVPISELTGNFKKSNEKALFRITNCEGTKCKTIFIGHYIGDDYIRRLVRRRKERIDIIEDVKTSDNSIITVKIVVVTDGKVTNTKKFQIRKVLTDFILNKGLSLPYSEFVRYLIGDDIYNDMISATKDIYPLKKIEVRKSELVSLSGISEIHAGSQLEHHHHHH”, the “soluble on expression in E. coli” value was “soluble”.

Regarding “MGHHHHHHSHMVVVAAAPNPADGTPKVLLLSGQPASAAGAPAGQALPLMVPAQRGASPEAASGGLPQARKRQRLTHLSPEEKALRRKLKNRVAAQTARDRKKARMSELEQQVVDLEEENQKLLLENQLLREKTHGLVVENQELRQRLGMDALVAEEEAEAKGNEVRPVAGSAESAALRLRAPLQQVQAQLSPLQNISPWILAVLTLQIQSLISCWAFWTTWTQSCSSNALPQSLPAWRSSQRSTQKDPVPYQPPFLCQWGRHQPSWKPLMN”, the “soluble on expression in E. coli” value was “not soluble”.

Turning to “MGSDKIHHHHHHMLAIEESQKLTLSNLPSLSLFTGTDQGQFEVMKSQMLKQIGYDSADLNFAYFDMKEVVYKDVELELVSLPFFADEKIVILDYFMDITTAKKRFLTDDELKSFEEYLDNPSPTTKLIIFAEGKLDSKRRLVKLLKRDAKAFDAVEVKEQELRQYFQKWSQKQGLQFTNHSFENLLIKSGFQFSEIQKNLLFLQSYKANSVIEEEDIVNAIPKTLQDNIFDLTQFILTKKMDQARDLVRDLTLQGEDEIKLIAVMLGQFRTFTQVKILAESGQTESQIASSLGSYLGRNPNPYQIKFALRDSRGLSLSFLKQAISYLIETDYQIKTGLYEKGFLFEKALLQIASQVN”, the “soluble on expression in E. coli” value is recorded as “not soluble”.

As to “MTGNEHSAIETYECDVLVAGSGASGMSAAITARYRGLDVLIVEKEPRFGGTTARSGGWLWIPGTSLAKAYGIEETPEQARTYLRHEAGNNFDGARIDAFLSAGPEAVDFFTTRTALRFDMPLVFPDYHAEAPGGAQGGRSMVTRPFDGRELGEQIRTLGMPLPELTVFGMMLGSGKEIIHFMRVTKSLTSAVYVAKRLSRHLMDVLHYGRGMTLTNGNALAGRLAKSALDLKIPMWLSSPVRELTVENGAVTGAIVSREGRKVRVRARQGVVLACGGFPHDVERRKKMFPHAPTGNEHFSPGPIGNTGDGLRLAESAGGHVEDRLPNAAAWVPVSLTTRKDGSKGVMPHFIDRAKPGVIAVMRDGRRFANEGNSYHDFVQAMVKAAKPGEEIAAYLVCDHKTLRKYGLGCVPPFPMPLGHHLSTGYLMRGDTLEALAAKAGIDATAFAETVRQFNTTAPLGHDAAFGKGSKAYNRYQGDALHGPNPCVAPIENGPFYAIKMVIGDLGTYAGIITDENARALDAEGRVIPGLYAAGNDMASIMGGNYPGAGITLGPALTFGYIAGRHLADSAAKRNAALEHHHHHH”, the “soluble on expression in E. coli” value is given as “not soluble”.

In the case of “MIVHELTDIGHLFTEQLQEGYYVIRETYQNVLVEPEDGDTVRQVDAGTEEVVTIVFDPGDEYSLICLDTYTFADGIPSLAELKETIAAEYDVFVNDRWAAPSL”, the “soluble on expression in E. coli” value is given as “not soluble”.

Regarding “GMSLIEIRKRTLIVETTYHENGPAPAQPLKLAASCAVIRNPYAGRYEPDLMPFMAELRSLGTLLATELVDTLGKDNIEVYSKAAIVGVDGEMEHGAVWHEAGGWAMRSVLGEPKAMVPAVKAVATAGYRMMVPVHYIHASYVRSHFNSIEIGIQDAPRPREILFALVMGTGARVHARLGGLTKEAVSVHDGQR”, the “soluble on expression in E. coli” value is “soluble”.
